# Earlier results as cited in patent US20230146896A1, “COMPOSITION AND METHOD FOR TREATING ALZHEIMER'S DISEASE” (Eisai R&D Management Co., Ltd., priority 2016, published 2023).
# Conditions: previous studies, intravenous infusion; typically occurred on the first infusion
molecule,measurement,value
"BAN2401: humanized IgG1 monoclonal version of mAb158; heavy chain variable SEQ ID NO:1, light chain variable SEQ ID NO:2 (antibody, V domains shown) VH: EVQLVESGGGLVQPGGSLRLSCSASGFTFSSFGMHWVRQAPGKGLEWVAYISSGSSTIYYGDTVKGRFTISRDNAKNSLFLQMSSLRAEDTAVYYCAREGGYYYGRSYYTMDYWGQGTTVTVSS VL: DVVMTQSPLSLPVTPGAPASISCRSSQSIVHSNGNTYLEWYLQKPGQSPKLLIYKVSNRFSGVPDRFSGSGSGTDFTLRISRVEAEDVGIYYCFQGSHVPPTFGPGTKLEIK",adverse events (infusion reactions),infusion reactions were common AEs
